Results taken from a protein production outcome set (Wang et al. 2014).

Assay: label from the status in PepcDB records

Row | Sequence | protein production
1 | MTRVPFTQNYRWHLPLLLLVFCCSFFINNGAIFADIMESRNIITAREMVYDHNWLVPTMNGELRLEKPPLPTWIAAITEMISPDNLPLQRAMAGFAAVMLVLFFYKFATKLTDNRTYALVSSLVLCTSYNIILMGRTATWDIYCHAFMIGAIYYLYLALRQNTCKWTYFIGAGIFMGLSFLGKGPVSFYALLLPFVCAYILYYRKETQMKGKWIALAVMILIGIVLSTWWYAYIYIYHQEMASYVFHKESSSWSNHNVRSWYYYWQFFLETGVWSLLTLTTLLVPFWKKRVESSKEYLFCLSWMLLILFFLSLLPEKKTRYLLPILLPAALTMGHLFVYWIRQAKQKMPQLKDRVLYRINAYLIVVAALALPIALYLFMYREGRMGTGMFVWLVVLFLTVAVWLFRSAFKLQPFSFLMGIVALFAVAELFVMPYIGSFVSNSDPKSISATRENPELQPLPFYHSKDEVLRIELVYEAHKKIGDMDLSNKEEIIKALPFVLISQKPAELLIPDSIRKDLNLRFIDCYDNNRWAKGHKRYDSVFISNVTIVEPIKEQ | failed
2 | MTRYLRLSGLEPFVLTPDIPFVNVGERTNVTGSARFRKLITNRDYAAALEVARDQVQNGAQILDVNMDEGLIDSKAAMVEFLNLIASEPDIARVPLMIDSSKWEVIEAGLKCVQGKPVVNSISLKEGEESFRRQAGLCLAYGAAVVVMAFDEEGQADSFARKTTICARAYRILVEEVGFPPEDIIFDPNVFAVATGIEEHDNYGVDFIEAARWIRANLPHAHVSGGVSNLSFSFRGNEPVREAMHAVFLYHAIRAGMDMGIVNAGQLAVYDQIDPDLREACEDVVLNRKPKQGGTATERLLALAER | failed
3 | MTSAFNAYTALALAIVSEVIASAFLQQSAQFTRPWPTLAMVLFYVASFYALSVAIRVIPLSIAYAIWGGVGIILTATVSFVLFRQMLDAAAFVGIGLIVSGVVIINLFSETTVH | failed
4 | MTSALNRLQPLNGNNMKLKTLLLFVALIQSVVSMAQQDWKGDYTRAKQVYQLQKYEIAMEYFLPVTSPDAANPYASYAQYYYSLSAYKAGKYNEARQMLLQLINRDPNWKQISEAHYLLAGVYFELKQYRFGMTSLTFVQGMESSVTTFRQSYYAKIAPLDTLIKLQRVYSSDKELAKALFNQLAAYPVNSKNNMLYEYLAQEFKFTKLNRTVTYVTKTEYHVAVILPFNLSESNSENYKSGYAYEMYQGILTAVDSLKEDGVTIKIHTYDADRDVMKIQAILNYPEMKGMDLIIGPLFPSLIPYVTNFGELNNIPVINPISFNSNIIENKTQTLLFQPTLESIAGQVSSFAKEKFVYRKNSSKDNDLKPKNNVLIFYSTELKDSLLAVYYRDSLQVKGFKVSKFVKVTKENIGTVGKIFSDSISLLTTSHVFVASGEPVLASNIVSALEISRQNVPVITKSDWLDINNQTYEQFERRNIYIIYPDYFAFYTDAYRSFKAAYIKKYNVYPSKYTIIGYELMSLVGDKMRTAGTGYFNLMRTSPVSKGHFTAGYDFSKKPCNNYVPIYYFSDLKLTLANPFDEK | failed
5 | MTSFDWFFVAAYLILSFGIALYFYQRAGEDTSEFFLSGRAMPWWLAGTSMVATTFAVDTPLLVTEIVAQNGIAGNWLWWNAAIGGMLTVFFFARLWRRSGVMTDVEFVEFRYSGRVAAWLRGLKALFFGLLLNILIIGWVSLAMETVIDRLFPDLTLFGQAAFSVLGREMSAALVVTGGLILLVSVYALLSGLWGVMVTDLFQFVVAMGGTIALAVLVLDMPEIGGVAGLREQLPDETFNLLPTIGGAAEGAATFSLSALAFAAYAGVQWWASWYPGAEPGGGGYIAQRMMSAKDEPNALFATLWYTIAHFCLRPWPWIIVALAALVLYPDLDEPRAGFVLVMKDVLPPGLLGLLFASFLAAFMSTVSTQLNWGVSYLVNDFWGRFVRPDADEAHYVRVSRVLTFGVALLSLVVTLFLDTIAEAWGLLLSASAGLGLVLILRWYWWRVNAWSEMAATLAPIGLTVAALVLNVFGVQVPGLQADFPLNLYSVVGFTTVVWLAATFLTRPTDAETLDAFYRTVHPGGPGWTPVAERHPDVTPDSGLGRLALDWLVGVVLVYSTLFGTGYLILGWTLWGAGCIAVALTAAAYLWRDLQRDEISLIEMKEEKDATEER | failed
6 | MTSFQSTLDDDEDGIAEELAASQREISVAEFFEKNKHMLGFDSGARGLVTAVKEAVDNALDATEEAGILPDIYVEISEGRDYYTLIVEDNGPGITNAQIPKIFGKLLYGSRFHAREQSRGQQGIGISAAVLYSQLTSGKPVRIESRTQDSETANVYELIIDTDTNEPEISAETEVSAAKSDLRGTHGTRIEMALDANMRARGQLHDYIKHTAVVNPHARIELQEPGGELKSERAEEASLPAETDEILPHPHGVELGTLIKMLAETDSHSVSGFLQSEFTRVGSKTATGIIDAFRDEHFGREMRWRPPADADLEATVADAVANKDATHTAVFARTVADAVRDADSIAPAELGALVADAAADAQDDTGTSFGETVQANVVAAVRDALTSDRVADVLGPVDEATTVQKDDATVRGLAERIAAKFESGGDTDRVTRDTLDEYVFRAAENTAEYADATIGETARENVADALWARMATVPDDPPNTSALADDRDAASDLLAAMASVNVMAPPTSCLSPIEADQLEAGLRTEFDADFYAAATRDADVHGGDPFIVEAGIAYGGDIDSEGGVQLMRFANRVPLVYQRGACATTDVLGDIGWRNYNLSQPGGSGLPQGPAVIMVHVASTNVPFTSESKDAIANVPEIEAEIELAVREAARELKSFLQKRQSMRKRQQKQDVIMDILPTMAEKVGELTGRGGVDVSDSLARIMNNVLVERARSDDGQTVTLRVENHGTGSVDVDVTDIVSAEPDGVGDDASVVAMDDEYFVKWTPAVAGDDAAELTYSVDADADCELSVSGVADARLTVSEADT | failed
7 | MTSGSRWDGIIPHPGILAFAMALYLLGFVLDASGRPLAYGFLTGDMVVHFFTFPGLREQFIDYLLATAFWIFISNITQVTVFIFSLATFYPVLKIFVLAGALLHNLLVGWGVRGLLIYAGTLHLHLEVTGCLLSLQAALVFVRSLLGTIQHRSRGPLVTALRENLAYLIPLIILLFAIAAILEVFWSTWWVYNLTHGPVSWRYFYTHVFSVEL | failed
8 | MTSPENPDLPDADDAYVDSGPGTQPASLEDLDMDSASTMRPMATQAVYRPEFDDTDGTSRGTVVTEAYDQVTMATRALSPMRRLGGGLVEIPRVPERDPLTALMTNPVVAESKRFCWNCGKPVGRSTPDGRALSEGWCPHCGSPYSFLPQLSPGDIVADQYEIKGCIAHGGLGWVYLAFDKNVNDRPVVLKGLVHSGDAEAQAIAMAERQFLAEVTHPGIVKIYNFVEHEDKHGNPVGYIVMEYVGGTSLKQARGAKLPVAEAIGYMLEILPALGYLHSIGLAYNDLKPENIMITEEQLKLIDLGAVSRLNSYGYLYGTPGYQAPEIVRTGPTVATDIYTVGRTLAALTLSLRTRRGRYVDGLPSDDPVLETYDSYHRLLRRAIDPDPRRRFTSAEEMSSQLLGVLREVVATDTGVPRPGLSTVFSPSRSTFGVDLLVAHTDVYVDGQVHSEKLTAQEIVRALPVPLVDRTDVGAPMLVASVLSEPVHTLDQLRAARHGALDTEGIDLNESVELPLMEVRALLDLGDVAKATRKLEDLAARVGWRWRLVWFKAVSEMLSADYDSATKHFTEVLDTLPGELAPKLALAATAELAGTADELKFYKTVWSTDNGVISAGFGLARAQSVAGERDMAVQTLDEVPPTSRHFTTARLTSAVTLLSGRSTSEITEQHIRDAARRVEALPDSEPRVLQIRALVLGTALDWLADNTASSNHILGFPFTEHGLKLGVEASLRALARIAPTQSHRYALVDLANSVRPMSTF | failed
9 | MTSPFHRLCRTTLAAGFLFGMASAALAVGDSNDDTNPPPKTETTKTCTGGKVWDKQRKECVTPKKNSFNDDDLYKFAREFAYAGQYENAITVLNLARNQNDPRILNYLGYANRKAGRMELGMSYYRKALQADENYILARSYMGMALVEQGDIQGARVQLVEIRDRGGEDTWAYRALLQSLNGYRTY | failed
10 | MTSPLRPEDPTRVGDYDLVARIGKGGQGVVYLGKAPDGTRVAVKVMETSWASNSRARSRFAKEIEAASKVAPFCTAALLDSDINADPPYIVSEYIEGPSLRDAVLRDGPRTGAALDRLAISTATALVAIHQAGVIHRDFKPANVLLGPDGPRVIDFGIARHSEATVTATDSIVGTPAYMAPEQVEGRELTPAVDIFAWAGVMVFAATGQSPFHDETLPAIINRVLHQPPRLDGVDERLRPLLEACLAKEPERRPTAVQVLGVLVGHDPATLPQVPVEEVLENGYTAALNEQTQIAATAALPIPIGDQAPEPAPTAVMPAAEDTPAPESRTPVSGLAALAANRPADEAPASSPPSGPLRTTSGLAALVNTGENKQPTASSPGEGPPRRSAGPGHQPLPPRSTRERKTVLSWLVAAGILIIVLAGGWFLIDTFLLSPNGQSPEATPVDGTRRDTPAQDGIDDSVPSPSAIDPDTPTSSDTGYPGGELYPSLPYDDMSQTDPMEEPHLNPTIPGEGPWHSPPAGEEAPGQPHGGGAEEGGSEGGEQPGTGGPGGSGEGGAGVGRVAVSPAAP | failed
